Columns and labels:
CD105 (endoglin) [1] = target: T1, CD105 (endoglin) (UniProt P17813 26-586, limits assumed); experiment: CD105 binding ELISA; F03 (pH 4.0, 20 mM acetate, 240 mM sorbitol, 25 mg/ml), 5 C, initial
T1 construct: Soluble protein captured on the plate
T1 sequence (looked up): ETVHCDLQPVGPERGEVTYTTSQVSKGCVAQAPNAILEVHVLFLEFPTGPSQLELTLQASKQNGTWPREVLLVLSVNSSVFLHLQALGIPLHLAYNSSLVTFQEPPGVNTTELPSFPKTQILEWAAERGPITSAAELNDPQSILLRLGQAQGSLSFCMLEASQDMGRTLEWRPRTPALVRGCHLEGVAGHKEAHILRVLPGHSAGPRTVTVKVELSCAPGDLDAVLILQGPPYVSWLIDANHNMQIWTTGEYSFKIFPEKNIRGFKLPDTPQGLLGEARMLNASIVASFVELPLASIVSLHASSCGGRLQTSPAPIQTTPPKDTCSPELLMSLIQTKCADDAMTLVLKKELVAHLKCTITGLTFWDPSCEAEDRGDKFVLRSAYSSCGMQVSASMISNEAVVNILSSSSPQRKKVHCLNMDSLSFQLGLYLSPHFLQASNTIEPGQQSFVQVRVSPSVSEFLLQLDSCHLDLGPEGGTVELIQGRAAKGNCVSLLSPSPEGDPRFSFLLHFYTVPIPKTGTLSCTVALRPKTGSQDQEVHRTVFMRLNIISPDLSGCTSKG

CD105 (endoglin) [2] = target: T1, CD105 (endoglin); experiment: CD105 binding ELISA; F04 (pH 5.5, 20 mM histidine, 240 mM trehalose, 50 mg/ml), 5 C, initial
CD105 (endoglin) [3] = target: T1, CD105 (endoglin); experiment: CD105 binding ELISA; TRC105 4 mg/mL in 17 mM phosphate, 145 mM NaCl, pH 7.2 (Lot FIN-0536), 25 C/60% RH study, initial (same initial value as in Table 18)
CD105 (endoglin) [4] = target: T1, CD105 (endoglin); experiment: CD105 binding ELISA; F05 (pH 4.0, 20 mM acetate, 240 mM trehalose, 50 mg/ml), 5 C, 12 months
CD105 (endoglin) [5] = target: T1, CD105 (endoglin); experiment: CD105 binding ELISA; F03 (pH 4.0, 20 mM acetate, 240 mM sorbitol, 25 mg/ml), 5 C, 12 months
CD105 (endoglin) [6] = target: T1, CD105 (endoglin); experiment: CD105 binding ELISA; TRC105 4 mg/mL in 17 mM phosphate, 145 mM NaCl, pH 7.2 (Lot FIN-0536), 2-8 C, 30 months
CD105 (endoglin) [7] = target: T1, CD105 (endoglin); experiment: CD105 binding ELISA; F05 (pH 4.0, 20 mM acetate, 240 mM trehalose, 50 mg/ml), 5 C, initial
CD105 (endoglin) [8] = target: T1, CD105 (endoglin); experiment: CD105 binding ELISA; TRC105 4 mg/mL in 17 mM phosphate, 145 mM NaCl, pH 7.2 (Lot FIN-0536), 2-8 C, 12 months
CD105 (endoglin) [9] = target: T1, CD105 (endoglin); experiment: CD105 binding ELISA; F04 (pH 5.5, 20 mM histidine, 240 mM trehalose, 50 mg/ml), 5 C, 12 months
CD105 (endoglin) [10] = target: T1, CD105 (endoglin); experiment: CD105 binding ELISA; F06 (pH 5.5, 20 mM histidine, 240 mM trehalose, 100 mg/ml), 5 C, 12 months
CD105 (endoglin) [11] = target: T1, CD105 (endoglin); experiment: CD105 binding ELISA; TRC105 4 mg/mL in 17 mM phosphate, 145 mM NaCl, pH 7.2 (Lot FIN-0536), 2-8 C, 24 months
CD105 (endoglin) [12] = target: T1, CD105 (endoglin); experiment: CD105 binding ELISA; TRC105 4 mg/mL in 17 mM phosphate, 145 mM NaCl, pH 7.2 (Lot FIN-0536), 2-8 C, 18 months
CD105 (endoglin) [13] = target: T1, CD105 (endoglin); experiment: CD105 binding ELISA; F07 (pH 4.0, 20 mM acetate, 240 mM trehalose, 100 mg/ml), 5 C, 12 months
CD105 (endoglin) [14] = target: T1, CD105 (endoglin); experiment: CD105 binding ELISA; F01 (pH 5.5, 20 mM histidine, 240 mM trehalose, 25 mg/ml), 5 C, 12 months
CD105 (endoglin) [15] = target: T1, CD105 (endoglin); experiment: CD105 binding ELISA; F01 (pH 5.5, 20 mM histidine, 240 mM trehalose, 25 mg/ml), 5 C, initial
CD105 (endoglin) [16] = target: T1, CD105 (endoglin); experiment: CD105 binding ELISA; F07 (pH 4.0, 20 mM acetate, 240 mM trehalose, 100 mg/ml), 5 C, initial
CD105 (endoglin) [17] = target: T1, CD105 (endoglin); experiment: CD105 binding ELISA; F04 (pH 5.5, 20 mM histidine, 240 mM trehalose, 50 mg/ml), 5 C, 6 months
CD105 (endoglin) [18] = target: T1, CD105 (endoglin); experiment: CD105 binding ELISA; F06 (pH 5.5, 20 mM histidine, 240 mM trehalose, 100 mg/ml), 5 C, initial
CD105 (endoglin) [19] = target: T1, CD105 (endoglin); experiment: CD105 binding ELISA; TRC105 4 mg/mL in 17 mM phosphate, 145 mM NaCl, pH 7.2 (Lot FIN-0536), 2-8 C, 9 months
CD105 (endoglin) [20] = target: T1, CD105 (endoglin); experiment: CD105 binding ELISA; F06 (pH 5.5, 20 mM histidine, 240 mM trehalose, 100 mg/ml), 5 C, 6 months
CD105 (endoglin) [21] = target: T1, CD105 (endoglin); experiment: CD105 binding ELISA; TRC105 4 mg/mL in 17 mM phosphate, 145 mM NaCl, pH 7.2 (Lot FIN-0536), 2-8 C, 36 months
CD105 (endoglin) [22] = target: T1, CD105 (endoglin); experiment: CD105 binding ELISA; F02 (pH 5.5, 20 mM histidine, 240 mM sorbitol, 25 mg/ml), 5 C, initial
CD105 (endoglin) [23] = target: T1, CD105 (endoglin); experiment: CD105 binding ELISA; TRC105 4 mg/mL in 17 mM phosphate, 145 mM NaCl, pH 7.2 (Lot FIN-0536), 2-8 C, 6 months
CD105 (endoglin) [24] = target: T1, CD105 (endoglin); experiment: CD105 binding ELISA; TRC105 4 mg/mL in 17 mM phosphate, 145 mM NaCl, pH 7.2 (Lot FIN-0536), 25 C/60% RH, 1 month
CD105 (endoglin) [25] = target: T1, CD105 (endoglin); experiment: CD105 binding ELISA; F02 (pH 5.5, 20 mM histidine, 240 mM sorbitol, 25 mg/ml), 5 C, 6 months
CD105 (endoglin) [26] = target: T1, CD105 (endoglin); experiment: CD105 binding ELISA; TRC105 4 mg/mL in 17 mM phosphate, 145 mM NaCl, pH 7.2 (Lot FIN-0536), 2-8 C, initial
CD105 (endoglin) [27] = target: T1, CD105 (endoglin); experiment: CD105 binding ELISA; F02 (pH 5.5, 20 mM histidine, 240 mM sorbitol, 25 mg/ml), 5 C, 12 months
CD105 (endoglin) [28] = target: T1, CD105 (endoglin); experiment: CD105 binding ELISA; F01 (pH 5.5, 20 mM histidine, 240 mM trehalose, 25 mg/ml), 5 C, 6 months

- Percent Relative CD105 Binding Potency (CD105 (endoglin) [1]): 124 % relative to reference standard
- Percent Relative CD105 Binding Potency (CD105 (endoglin) [2]): 123 % relative to reference standard
- CD105 Binding by ELISA (binding activity relative to reference standard) (CD105 (endoglin) [3]): 88 % relative to reference standard
- Percent Relative CD105 Binding Potency (CD105 (endoglin) [4]): 96 % relative to reference standard
- Percent Relative CD105 Binding Potency (CD105 (endoglin) [5]): 77 % relative to reference standard
- CD105 Binding by ELISA (binding activity relative to reference standard) (CD105 (endoglin) [6]): 88 % relative to reference standard
- Percent Relative CD105 Binding Potency (CD105 (endoglin) [7]): 179 % relative to reference standard
- CD105 Binding by ELISA (binding activity relative to reference standard) (CD105 (endoglin) [8]): 91 % relative to reference standard
- Percent Relative CD105 Binding Potency (CD105 (endoglin) [9]): 74 % relative to reference standard
- Percent Relative CD105 Binding Potency (CD105 (endoglin) [10]): 115 % relative to reference standard
- CD105 Binding by ELISA (binding activity relative to reference standard) (CD105 (endoglin) [11]): 136 % relative to reference standard
- CD105 Binding by ELISA (binding activity relative to reference standard) (CD105 (endoglin) [12]): 88 % relative to reference standard
- Percent Relative CD105 Binding Potency (CD105 (endoglin) [13]): 86 % relative to reference standard
- Percent Relative CD105 Binding Potency (CD105 (endoglin) [14]): 68 % relative to reference standard
- Percent Relative CD105 Binding Potency (CD105 (endoglin) [15]): 101 % relative to reference standard
- Percent Relative CD105 Binding Potency (CD105 (endoglin) [16]): 100 % relative to reference standard
- Percent Relative CD105 Binding Potency (CD105 (endoglin) [17]): 97 % relative to reference standard
- Percent Relative CD105 Binding Potency (CD105 (endoglin) [18]): 93 % relative to reference standard
- CD105 Binding by ELISA (binding activity relative to reference standard) (CD105 (endoglin) [19]): 104 % relative to reference standard
- Percent Relative CD105 Binding Potency (CD105 (endoglin) [20]): 95 % relative to reference standard
- CD105 Binding by ELISA (binding activity relative to reference standard) (CD105 (endoglin) [21]): 105 % relative to reference standard
- Percent Relative CD105 Binding Potency (CD105 (endoglin) [22]): 90 % relative to reference standard
- CD105 Binding by ELISA (binding activity relative to reference standard) (CD105 (endoglin) [23]): 110 % relative to reference standard
- CD105 Binding by ELISA (binding activity relative to reference standard) (CD105 (endoglin) [24]): 91 % relative to reference standard
- Percent Relative CD105 Binding Potency (CD105 (endoglin) [25]): 90 % relative to reference standard
- CD105 Binding by ELISA (binding activity relative to reference standard) (CD105 (endoglin) [26]): 88 % relative to reference standard
- Percent Relative CD105 Binding Potency (CD105 (endoglin) [27]): 69 % relative to reference standard
- Percent Relative CD105 Binding Potency (CD105 (endoglin) [28]): 94 % relative to reference standard
B1: TRC105 (an anti-CD105 antibody) (antibody, human IgG1, kappa, V domains shown)
VH: EVKLEESGGGLVQPGGSMKLSCAASGFTFSDAWMDWVRQSPEKGLEWVAEIRSKASNHATYYAESVKGRFTISRDDSKSSVYLQMNSLRAEDTGIYYCTRWRRFFDSWGQGTTLTVSS
VL: QIVLSQSPAILSASPGEKVTMTCRASSSVSYMHWYQQKPGSSPKPWIYATSNLASGVPVRFSGSGSGTSYSLTISRVEAEDAATYYCQQWSSNPLTFGAGTKLELKR
notes: each chain is built here as variable plus constant region; The same antibody was tested in different formulations and after different storage times; also called Lot FIN-0536

From patent publication US20180311359A1 (TRACON PHARMACEUTICALS, published 2018)
